Measured values published in patent publication US20190119318A1.
“And” between values parts separate entries of the source, which are not always exact repeats. Identical values can stand only once.

Tests used:
[1] = biological target: human polyclonal IgG (Gammanorm) (human); experiment: column DBC; base A33; ligand 7.3 mg/ml
[2] = biological target: human polyclonal IgG (Gammanorm) (human); experiment: column DBC; base C3; ligand 9.0 mg/ml
[3] = biological target: human polyclonal IgG (Gammanorm) (human); experiment: column DBC; base B5; ligand 9.6 mg/ml
[4] = biological target: human polyclonal IgG (Gammanorm) (human); experiment: column DBC; base A28; ligand 11.9 mg/ml
[5] = biological target: human polyclonal IgG (Gammanorm) (human); experiment: column DBC; base A40; ligand 11.03 mg/ml
[6] = biological target: human polyclonal IgG (Gammanorm) (human); experiment: column DBC; base C3; ligand […]; conditions: ligand content 5.9 mg/ml
[7] = biological target: human polyclonal IgG (Gammanorm) (human); experiment: column DBC; base A28; ligand 15.8 mg/ml
[8] = biological target: human polyclonal IgG (Gammanorm) (human); experiment: column DBC; base A62a; ligand 6.6 mg/ml
[9] = biological target: human polyclonal IgG (Gammanorm) (human); experiment: column DBC; base A20; ligand […]
[10] = biological target: human polyclonal IgG (Gammanorm) (human); experiment: column DBC; base A27; ligand 7.5 mg/ml
[11] = biological target: human polyclonal IgG (Gammanorm) (human); experiment: column DBC; base A63a; ligand 14.0 mg/ml
[12] = biological target: human polyclonal IgG (Gammanorm) (human); experiment: column DBC; base A41; ligand 13.0 mg/ml
[13] = biological target: human polyclonal IgG (Gammanorm) (human); experiment: column DBC; base A39; ligand 10.48 mg/ml
[14] = biological target: human polyclonal IgG (Gammanorm) (human); experiment: column DBC; base A65b; ligand […]
[15] = biological target: human polyclonal IgG (Gammanorm) (human); experiment: column DBC; base A20; ligand 7.3 mg/ml
[16] = biological target: human polyclonal IgG (Gammanorm) (human); experiment: column DBC; ligand 12 mg/ml; before incubation in 1 M NaOH
[17] = biological target: human polyclonal IgG (Gammanorm) (human); experiment: SPR; vs reference Zvar4; 1 M NaOH
[18] = biological target: human polyclonal IgG (Gammanorm) (human); experiment: column DBC; base A43; ligand 6.99 mg/ml
[19] = biological target: human polyclonal IgG (Gammanorm) (human); experiment: column DBC; base A62a; ligand 7.5 mg/ml
[20] = biological target: human polyclonal IgG (Gammanorm) (human); experiment: column DBC; base A62b; ligand […]; conditions: ligand content 5.2 mg/ml
[21] = biological target: human polyclonal IgG (Gammanorm) (human); experiment: column DBC; base A40; ligand 11.0 mg/ml
[22] = biological target: human polyclonal IgG (Gammanorm) (human); experiment: column DBC; base A38; ligand 11.34 mg/ml
[23] = biological target: human polyclonal IgG (Gammanorm) (human); experiment: column DBC; base A38; ligand 11.3 mg/ml
[24] = biological target: human polyclonal IgG (Gammanorm) (human); experiment: column DBC; base A41; ligand 8.83 mg/ml
[25] = biological target: human polyclonal IgG (Gammanorm) (human); experiment: column DBC; base A42; ligand 6.72 mg/ml
[26] = biological target: human polyclonal IgG (Gammanorm) (human); experiment: column DBC; base I1; ligand 11.2 mg/ml
[27] = biological target: human polyclonal IgG (Gammanorm) (human); experiment: column DBC; base A41; ligand 5.0 mg/ml
[28] = biological target: human polyclonal IgG (Gammanorm) (human); experiment: column DBC; base A18; ligand 8.2 mg/ml
[29] = biological target: human polyclonal IgG (Gammanorm) (human); experiment: column DBC; base A29; ligand 11 mg/ml
[30] = biological target: human polyclonal IgG (Gammanorm) (human); experiment: column DBC; base A33; ligand 7.33 mg/ml
[31] = biological target: human polyclonal IgG (Gammanorm) (human); experiment: column DBC; base A42; ligand […]
[32] = biological target: human polyclonal IgG (Gammanorm) (human); experiment: column DBC; base A33; ligand 9.4 mg/ml
[33] = biological target: human polyclonal IgG (Gammanorm) (human); experiment: column DBC; base A39; ligand 7.0 mg/ml
[34] = biological target: human polyclonal IgG (Gammanorm) (human); experiment: column DBC; base H40; ligand 9.1 mg/ml
[35] = biological target: human polyclonal IgG (Gammanorm) (human); experiment: column DBC; base C2; ligand 10.5 mg/ml

Zvar(Q9A,N11E,Q40V,A42K,N43A,L44I)4 (designed binder)
Qb10% 2.4 min [1]: 49 mg/mL | Qb10% 6 min [1]: 56 mg/mL | Qb10% 2.4 min [2]: 49 mg/mL | Qb10% 6 min [2]: 62 mg/mL | Qb10% 2.4 min [3]: 45 mg/mL | Qb10% 6 min [3]: 47 mg/mL | Qb10% 2.4 min [4]: 39.9 mg/mL and 40 mg/mL | Qb10% 6 min [4]: 63.8 mg/mL and 64 mg/mL | Qb10% 2.4 min [5]: 55 mg/mL | Qb10% 6 min [5]: 73.8 mg/mL | Qb10% 2.4 min [6]: 44 mg/mL | Qb10% 6 min [6]: 52 mg/mL | Qb10% 2.4 min [7]: 37 mg/mL | Qb10% 6 min [7]: 67 mg/mL | Qb10% 2.4 min [8]: 41 mg/mL | Qb10% 6 min [8]: 46 mg/mL | Qb10% 2.4 min [9]: 49 mg/mL | Qb10% 6 min [9]: 67 mg/mL | Qb10% 2.4 min [10]: 29.2 mg/mL | Qb10% 6 min [10]: 48.7 mg/mL | Qb10% 2.4 min [11]: 48 mg/mL | Qb10% 6 min [11]: 56 mg/mL | Qb10% 2.4 min [12]: 35 mg/mL | Qb10% 6 min [12]: 62.2 mg/mL | Qb10% 2.4 min [13]: 44.4 mg/mL | Qb10% 6 min [13]: 64.8 mg/mL | Qb10% 2.4 min [14]: 42 mg/mL | Qb10% 6 min [14]: 46 mg/mL | Qb10% 2.4 min [15]: 45.1 mg/mL and 45 mg/mL | Qb10% 6 min [15]: 57.2 mg/mL and 57 mg/mL | Qb10%, 6 min, before incubation [16]: 78 mg/mL | capacity relative to ref. 100 cycles [17]: 2.07 | Qb10% 2.4 min [18]: 33.4 mg/mL | Qb10% 6 min [18]: 49.8 mg/mL | Qb10% 2.4 min [19]: 47 mg/mL | Qb10% 6 min [19]: 56 mg/mL | Qb10% 2.4 min [20]: 40 mg/mL | Qb10% 2.4 min [21]: 55 mg/mL | Qb10% 6 min [21]: 74 mg/mL | Qb10% 2.4 min [22]: 48.1 mg/mL | Qb10% 6 min [22]: 72.8 mg/mL | Qb10% 2.4 min [23]: 48 mg/mL | Qb10% 6 min [23]: 73 mg/mL | Qb10% 2.4 min [24]: 38.5 mg/mL and 37.8 mg/mL and 35.1 mg/mL | Qb10% 6 min [24]: 56.8 mg/mL and 58.6 mg/mL and 57.2 mg/mL | Qb10% 2.4 min [25]: 33.6 mg/mL | Qb10% 6 min [25]: 50 mg/mL | Qb10% 2.4 min [26]: 57 mg/mL | Qb10% 6 min [26]: 68 mg/mL | Qb10% 2.4 min [27]: 35.6 mg/mL | Qb10% 6 min [27]: 46 mg/mL | Qb10% 2.4 min [28]: 52 mg/mL | Qb10% 6 min [28]: 59 mg/mL | Qb10% 2.4 min [29]: 34.9 mg/mL | Qb10% 6 min [29]: 64.7 mg/mL | Qb10% 2.4 min [30]: 48.7 mg/mL | Qb10% 6 min [30]: 55.8 mg/mL | Qb10% 2.4 min [31]: 32.2 mg/mL | Qb10% 6 min [31]: 57.8 mg/mL | Qb10% 2.4 min [32]: 51 mg/mL | Qb10% 6 min [32]: 58 mg/mL | Qb10% 2.4 min [33]: 42 mg/mL | Qb10% 6 min [33]: 55 mg/mL | Qb10% 2.4 min [34]: 52 mg/mL | Qb10% 6 min [34]: 67 mg/mL | Qb10% 2.4 min [35]: 42 mg/mL | Qb10% 6 min [35]: 57 mg/mL
